Where a chain is given by its changes, count along the chain named.

The results in this text go back to patent US20240294641A1 (CHILDREN S MEDICAL CENTER, published 2024).

B1: M2-3 (antibody, V domains shown)
VH: QGHLVESGGDVVLPGGSLRLSCTESGVDLSDFGIHWVRQTPGKGLEWVALIWYDGSKKFYADSVKDRFTISRDNSKNMVYLEMISLRVEDTAMYFCARGIRRGPWFTYWGPGTLVTVST
VL: EIVLTQSPVILSLSPGERATLSCRASQSISSDLAWFQQTPGQAPRLIIYDASNRATGIPARFSGSGSGTDFTLTISSLEPEDFAVYYCQQRSNWPLTFGGGTKVEIK
notes: Expressed as human IgG4/kappa in 293F or Expi293 cells; also called 397-27-25
B2: M1-1 (antibody, V domains shown)
VH: QVQLVESGGDVVQPGGSLRLSCAASGVAFRDYGMHWVRQAPGKGLEWVAVIWYDGSKKYYGDSVKGRFTVSRDNSKNMLYLEMNGLKAEDTAMYYCARNDDYWGQGTLVTVSS
VL: EIVLTQSPATLSLSPGERATLSCRASQSVSNSLSWYQQNPGQSPRLIIYDTSKRATGIPARFSGSGSGTDFTLTINNLETEDFAVYYCHQRSDWPLTFGGGTKVEIK
notes: Expressed as human IgG4/kappa in 293F or Expi293 cells; retains the CDR H3 of 17D8; also called 319-9-8
B3: M1-7 (antibody, V domains shown)
VH: QLQLVESGGDVVQPGGSLRLSCAASGVVFSDFGLEWVRQAPGKGLEWLAVIWYDGSRKHYADSVKGRFTISRDNSKNMLYLQMNSLRVEDTAMYYCARCHSKEDYWGQGTLVTVSS
VL: EIEVTQSPATLSLSPGERATLSCRASQSIDTDLAWFQQRPGQTPRLIIYDASKRATGIPARFSGGGSGTDFTLTISSLEPEDFAVYYCQQRTTWPLTFGGGTKVEIK
notes: Expressed as human IgG4/kappa in 293F or Expi293 cells; also called 319-9-75
B4: M2-4 (antibody, V domains shown)
VH: QVQLVESGGDVVQPGGSLRLSCAASGVAFRNYGMHWVRQAPGKGLEWVAIIWYDGSNKYYADSVKGRFTISRDNSKNMLYLQMNSLRAEDTAMYYCARLSIGTTHYFDTDDYWGQGTSVTVSS
VL: EIVLTQSPATLSLSPGERATLSCRASQSVSSYLAWYQQKVGQAPRLIIFDASNRATGIPARFSGSGSGTDFTLTITSLDPEDFAVYYCQQRSAWPLTFGGGTKVEIR
notes: Expressed as human IgG4/kappa; 6xHis tag at the C-terminus of the Fc for ELISA
B5: M2-5 (antibody, V domains shown)
VH: QVQLVESGGDVVQPGGSLRLSCAASGVVFSDYGLYWVRQAPGKGLEWVALIWYDGSKKFYADSVKGRFSISRDNSKNMLYLQMNNLRADDSAIYYCSRGIRQGPWFAYWGQGTRVTVSP
VL: B1 VL with V9A, I10T, A34T, T39K, A84V, Q89L, N93D
notes: Expressed as human IgG4/kappa in 293F or Expi293 cells; also called 397-27-93
B6: M2-2 (antibody, V domains shown)
VH: QVQLVESGGDVVQPGGSLRLSCSASGLVISDYGMNWVRQAPGKGLEWVGLIWYDGSKKYYSDFVKGRFTISRDNSKNILYLQMNNLRAEDTAMYYCARFLIGATRRGNAMDYWGQGTSVTVSS
VL: B1 VL with I2V, V9A, I10T, S30D, F36S, T39K, A43P, N93D, K107R
notes: Expressed as human IgG4/kappa in 293F or Expi293 cells; also called 397-27-23
B7: M1-2 (antibody, V domains shown)
VH: B3 VH with L2V, V28A, F32Y, L34M, M78I, V88A, E103D
VL: B3 VL with E3V, V4L, S7F, A25T, S28N, T31S, R39K, T43A, K53N, S76T
notes: Expressed as human IgG4/kappa in 293F or Expi293 cells; also called 319-9-15
B8: M1-4 (antibody, V domains shown)
VH: QVQLVESGGDVVQPGGSLRLSCAVSGVTFGDFGFEWVRQAPGKGLEWVAVIWYDGSRKHYAESVRGRFTISRDNSRNMMYLEMTGLRVEDTAKYYCTRSHSHEDYWGQGTLVTVSS
VL: EIVLTQSPATLSLSPGERATLSCRASQSISNYLAWFQQKSGQAPRLIIHDAFKRAAGIPTRFSGSGSGTDFTLTISSLEPEDFAVYYCQQRDNWPLNFGGGTKVEIK
notes: Expressed as human IgG4/kappa in 293F or Expi293 cells; also called 319-9-27
B9: M1-6 (antibody, V domains shown)
VH: B8 VH with P14S, T28V, G30S, F32Y, E62D, R65Q, S75F, M79L, E82Q
VL: EIVLTQSPATLSLSPGERATLSCGASQNIDNSLAWFQQKPGQAPRLIIYDASKRATGIPARFSGSGSGTDFTLTISTLEPEDFAVYYCQQRDHWPLNFGGGTKVEVK
notes: Expressed as human IgG4/kappa in 293F or Expi293 cells; also called 319-9-53
B10: M1-3 (antibody, V domains shown)
VH: QEWLVESGGDVVQPGGSLRLSCATSKVTFNDFGIHWVRQAPGKGLEWVAIIWYDGSRNHYADSVRGRFTLSRDNSKNMVHLHMSSLRTEDTAMYYCARGIHSNDDYWGQGTMVTVSS
VL: EIVLTQSPATLSLSPGERATLSCRTSQSVSSDLAWFQQKPGQAPRLFIFDASKRVNGIPARFSGSGSGTDFTLTISSLEPEDFAVYYCQQRTDWPLTFGGGSRVEIK
notes: Expressed as human IgG4/kappa in 293F or Expi293 cells; also called 319-9-17
B11: 17D8 antibody (antibody, V domains shown)
VH: B2 VH with R30S, D31N, K57N, G61A, V70I, E82Q, G85S, K87R
VL: B4 VL with V40P, F49Y, T76S, D79E, A93N, R107K
notes: Prototype anti-PD1 antibody (U.S. Pat. No. 8,008,449 B2); Produced as human IgG4/kappa; His-tagged for ELISA, untagged for Biacore
B12: M1-5 (antibody, human IgG4, V domains shown)
VH: QVQLVESGGDVVQPGGSLRLSCTVSGAVFRDLGMEWVRQAPGKGLEWLAVIWYDGGRKHYADSVKGRFTISRDNSRNMLFLQMNGLRVDDTAMYYCTRSHSTDDYWGQGTLVTVSS
VL: B8 VL with L13V, N31S, Y32D, S40P, D50G, F52S, A56T, T60A, N93S
notes: Expressed as human IgG4/kappa; without His tag and Protein A purified for Biacore; also called 319-9-34
B13: M2-1 (antibody, human IgG4, V domains shown)
VH: B6 VH with I29F, S30R, S56T, I78M, M93I, T120I
VL: B1 VL with I2V, V9A, I10T, S30D, F36S, T39K, P40T, A43P, N93D, K107R
notes: Expressed as human IgG4/kappa; without His tag and Protein A purified for Biacore; also called 397-27-3

The first experiment deals with T1, full-length human PD1 expressed on NS1 cells (PD1-NS1) (human, UniProt Q15116 25-288).
T1 construct: whole, on cells; also called surface-expressed PD1; PD1 expressing cell line
T1 sequence (Q15116 25-288): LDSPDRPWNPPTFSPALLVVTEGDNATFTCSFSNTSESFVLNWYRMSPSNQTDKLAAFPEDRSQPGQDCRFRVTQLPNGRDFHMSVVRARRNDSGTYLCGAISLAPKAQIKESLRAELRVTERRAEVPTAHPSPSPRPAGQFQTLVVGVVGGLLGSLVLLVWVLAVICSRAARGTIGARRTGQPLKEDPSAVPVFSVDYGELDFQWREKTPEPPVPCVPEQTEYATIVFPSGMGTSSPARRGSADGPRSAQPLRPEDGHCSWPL
Briefly: FACS on PD1-NS1 cells, PE-anti-human kappa.
Procedure: To test the binding of anti-PD1 antibodies to surface expressed PD1, full-length human PD1 in mouse plasmacytoma cell line, NS1, was expressed. […] A construct that expresses the full length human PD1 was transfected into NS1 cells, and clones with stable integration of the expression construct were obtained. […] For the FACS analysis in FIG. 5B, the PD1-NS1 cells were incubated with anti-PD1 antibodies. […] The FACS staining reaction was analyzed on Attune NXT FACS machine, and the data were plotted with FlowJo 10 software.
In the case of B1, the binding result is given as “binds”.
In the case of B2, the binding result was “binds”.
Same read-out and setting: the result for B3 reads “binds”.

For another experiment, the target named is T1, full-length human PD1 expressed on NS1 …. Briefly: FACS on PD1-NS1 cells, PE-anti-human kappa. The source holds these as a separate data set.
Turning to B4, the binding result is “binds”.
For B5, the binding result is recorded as “binds”.
B6: the binding result was “binds”.
Same read-out and setting: the result for B7 reads “binds”.
Still for that read-out and setting: in the case of B8 it was “binds”.
Still for that read-out and setting: the result for B9 reads “binds”; that for B10, “binds”.

The target of a further experiment is T2, PD1 extracellular domain, without fusion to other proteins (human, UniProt Q15116 25-170).
T2 construct: extracellular domain; also called unfused PD1; monomeric PD1
T2 sequence (Q15116 25-170): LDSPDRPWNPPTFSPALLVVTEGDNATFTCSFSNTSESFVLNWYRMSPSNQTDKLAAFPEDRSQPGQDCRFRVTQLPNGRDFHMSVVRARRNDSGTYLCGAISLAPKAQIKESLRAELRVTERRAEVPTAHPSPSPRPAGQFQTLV
Nature of the experiment: ELISA, plate coated with PD1 extracellular domain without Fc fusion, OD405.
Source text: (§1) ELISA was used to compare the PD1 binding activities of the new and previous anti-PD1 antibodies. The ELISA coating antigen was a recombinant protein of the extracellular domain of PD1, without fusion to other proteins so that the ELISA measured binding activities specific to PD1.
In this ELISA experiment, PD1 extracellular domain, without Fc fusion, was coated on the ELISA plate.
With B1, the binding result is “binds”.
Same read-out and setting: the result for B2 reads “binds”; that for B3, “binds”.

In another experiment the target is T2, PD1 extracellular domain, without …. The description is as above. The source holds these as a separate data set.
Source text: as §1
Regarding B4, the binding result is “binds”.
Still for that read-out and setting: in the case of B5 it was “binds”; in that of B6, “binds”.
The same measure, in the same setting: in the case of B7 it was “binds”.
Regarding B8, the binding result is recorded as “binds”.
On the same count and under the same terms, the result for B9 reads “binds”; that for B10, “binds”.

For another experiment the target is unchanged. Nature of the experiment: Biacore (SPR), antibody immobilized on the sensor chip, PD1 extracellular domain in flow.
Procedure: In this assay, antibodies were immobilized on sensor chips, and PD1 extracellular domain, the same protein used in the ELISA experiment in FIG. 5C, flowed through sensor chip. The kinetics of PD1/antibody interaction was measured in real time. The table lists the association rate constant (kₐ), dissociation rate constant (kd) and equilibrium dissociation constant (KD) for each antibody.
Biacore analysis of the kinetics of the interaction between anti-PD1 antibodies and PD1 was performed by Affina Biotechnologies. Given the quantitative and sensitive nature of the assay, non-physiological modifications of the antibodies and PD1 were minimized. […] The PD1-Fc fusion protein contains a TEV protease cleavage site. After TEV digest, the PD1 portion was separated from the Fc region. […] However, in the context of the PD-Fc fusion, PD1 is dimerized through the Fc region and may engage in bivalent interactions with IgG antibodies. The avidity effect can cause major deviations from the actual binding affinity between monomeric PD1 and single antigen-binding site. Separation of PD1 from the Fc portion prevented this error. In the biacore assay, the antibodies were immobilized on sensor chips and PD1 was passed over the immobilized antibodies. Association and dissociation of antibodies and PD1 were detected in real time.
Turning to B11, binding was characterised by a dissociation constant (Kd) of 3.4 nM, the koff worked out at 0.0013 s⁻¹ and the kon came to 387000 M⁻¹ s⁻¹.
On the same counts, the results for B12 are 2.1 nM, 0.0021 s⁻¹ and 995000 M⁻¹ s⁻¹.
On the same counts, the results for B13 are 3.7 nM, 0.00074 s⁻¹ and 199000 M⁻¹ s⁻¹.
